{
  "source": "IntAct's records for PubMed 26387864",
  "parents": {"B1": {"name": "Mitochondrial intermembrane space import and assembly protein 40 (Homo sapiens), Q8N4Q1 (parent)", "chain": "MSYCRQEGKDRIIFVTKEDHETPSSAELVADDPNDPYEEHGLILPNGNINWNCPCLGGMASGPCGEQFKSAFSCFHYSTEEIKGSDCVDQFRAMQECMQKYPDLYPQEDEDEEEEREKKPAEQAEETAPIEATATKEEEGSS"}, "B2": {"name": "Calcium uptake protein 1, mitochondrial (Homo sapiens), Q9BPX6 (parent)", "chain": "MFRLNSLSALAELAVGSRWYHGGSQPIQIRRRLMMVAFLGASAVTASTGLLWKRAHAESPPCVDNLKSDIGDKGKNKDEGDVCNHEKKTADLAPHPEEKKKKRSGFRDRKVMEYENRIRAYSTPDKIFRYFATLKVISEPGEAEVFMTPEDFVRSITPNEKQPEHLGLDQYIIKRFDGKKISQEREKFADEGSIFYTLGECGLISFSDYIFLTTVLSTPQRNFEIAFKMFDLNGDGEVDMEEFEQVQSIIRSQTSMGMRHRDRPTTGNTLKSGLCSALTTYFFGADLKGKLTIKNFLEFQRKLQHDVLKLEFERHDPVDGRITERQFGGMLLAYSGVQSKKLTAMQRQLKKHFKEGKGLTFQEVENFFTFLKNINDVDTALSFYHMAGASLDKVTMQQVARTVAKVELSDHVCDVVFALFDCDGNGELSNKEFVSIMKQRLMRGLEKPKDMGFTRLMQAMWKCAQETAWDFALPKQ", "partner": "B1 chain"}, "B3": {"name": "Calcium uptake protein 1, mitochondrial (Homo sapiens), Q9BPX6 (parent)", "chain": "B2 chain"}},
  "data": [
    {"variants_of": "B1", "conditions": "with micu1_human MICU1, Q9BPX6", "values": [
      {"variant": "MSYCRQEGKDRIIFVTKEDHETPSSAELVADDPNDPYEEHGLILPNGNINWNCPSLGGMASGPCGEQFKSAFSCFHYSTEEIKGSDCVDQFRAMQECMQKYPDLYPQEDEDEEEEREKKPAEQAEETAPIEATATKEEEGSS", "note": "[C55S]", "effect of a mutation on the interaction": "disrupting interaction strength"},
      {"variant": "MSYCRQEGKDRIIFVTKEDHETPSSAELVADDPNDPYEEHGLILPNGNINWNSPCLGGMASGPCGEQFKSAFSCFHYSTEEIKGSDCVDQFRAMQECMQKYPDLYPQEDEDEEEEREKKPAEQAEETAPIEATATKEEEGSS", "note": "[C53S]", "effect of a mutation on the interaction": "with no effect"},
      {"variant": "MSYSRQEGKDRIIFVTKEDHETPSSAELVADDPNDPYEEHGLILPNGNINWNSPSLGGMASGPCGEQFKSAFSCFHYSTEEIKGSDCVDQFRAMQECMQKYPDLYPQEDEDEEEEREKKPAEQAEETAPIEATATKEEEGSS", "note": "[C4S;C53S;C55S]", "effect of a mutation on the interaction": "disrupting interaction strength"}
    ]},
    {"variants_of": "B2", "conditions": "with mia40_human CHCHD4, Q8N4Q1", "values": [
      {"variant": "MFRLNSLSALAELAVGSRWYHGGSQPIQIRRRLMMVAFLGASAVTASTGLLWKRAHAESPPCVDNLKSDIGDKGKNKDEGDVCNHEKKTADLAPHPEEKKKKRSGFRDRKVMEYENRIRAYSTPDKIFRYFATLKVISEPGEAEVFMTPEDFVRSITPNEKQPEHLGLDQYIIKRFDGKKISQEREKFADEGSIFYTLGECGLISFSDYIFLTTVLSTPQRNFEIAFKMFDLNGDGEVDMEEFEQVQSIIRSQTSMGMRHRDRPTTGNTLKSGLCSALTTYFFGADLKGKLTIKNFLEFQRKLQHDVLKLEFERHDPVDGRITERQFGGMLLAYSGVQSKKLTAMQRQLKKHFKEGKGLTFQEVENFFTFLKNINDVDTALSFYHMAGASLDKVTMQQVARTVAKVELSDHVCDVVFALFDCDGNGELSNKEFVSIMKQRLMRGLEKPKDMGFTRLMQAMWKAAQETAWDFALPKQ", "note": "[C463A]", "effect of a mutation on the interaction": "disrupting interaction strength"}
    ]},
    {"variants_of": "B3", "conditions": "with mcu_human MCU", "values": [
      {"variant": "MFRLNSLSALAELAVGSRWYHGGSQPIQIRRRLMMVAFLGASAVTASTGLLWKRAHAESPPCVDNLKSDIGDKGKNKDEGDVCNHEKKTADLAPHPEEKKKKRSGFRDRKVMEYENRIRAYSTPDKIFRYFATLKVISEPGEAEVFMTPEDFVRSITPNEKQPEHLGLDQYIIKRFDGKKISQEREKFADEGSIFYTLGECGLISFSDYIFLTTVLSTPQRNFEIAFKMFDLNGDGEVDMEEFEQVQSIIRSQTSMGMRHRDRPTTGNTLKSGLCSALTTYFFGADLKGKLTIKNFLEFQRKLQHDVLKLEFERHDPVDGRITERQFGGMLLAYSGVQSKKLTAMQRQLKKHFKEGKGLTFQEVENFFTFLKNINDVDTALSFYHMAGASLDKVTMQQVARTVAKVELSDHVCDVVFALFDCDGNGELSNKEFVSIMKQRLMRGLEKPKDMGFTRLMQAMWKSAQETAWDFALPKQ", "note": "[C463S]", "effect of a mutation on the interaction": "with no effect"}
    ]}
  ]
}
